One block for each molecule: values may come before it.
What was measured:
[1] = biological target: SaFlaH (Sulfolobus acidocaldarius, UniProt Q4J9K9, K33A); assay: fluorescence titration; type: binding; conditions: 1 µM protein, 5 mM MnCl2, pH 6.2, 25 °C; labelled compound
[2] = biological target: SaFlaH (Sulfolobus acidocaldarius, UniProt Q4J9K9, D122N); assay: fluorescence titration; type: binding; conditions: 1 µM protein, 5 mM MnCl2, pH 6.2, 25 °C; labelled compound
[3] = biological target: Pyrococcus furiosus FlaH, wild type (PfFlaH) (Pyrococcus furiosus); assay: MST
[4] = biological target: T1, StrepII-tagged Sulfolobus acidocaldarius FlaH (StrepII-FlaH) (Sulfolobus acidocaldarius, UniProt Q4J9K9 1-228); assay: pull-down
T1 sequence: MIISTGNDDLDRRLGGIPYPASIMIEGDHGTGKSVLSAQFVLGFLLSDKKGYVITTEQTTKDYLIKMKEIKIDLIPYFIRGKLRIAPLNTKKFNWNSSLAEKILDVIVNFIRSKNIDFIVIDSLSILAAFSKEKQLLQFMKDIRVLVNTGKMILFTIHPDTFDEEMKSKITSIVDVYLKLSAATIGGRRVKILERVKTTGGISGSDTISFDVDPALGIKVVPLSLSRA

Sequence of SaFlaH (Sulfolobus acidocaldarius, UniProt Q4J9K9, D122N) (Q4J9K9 whole entry D122N): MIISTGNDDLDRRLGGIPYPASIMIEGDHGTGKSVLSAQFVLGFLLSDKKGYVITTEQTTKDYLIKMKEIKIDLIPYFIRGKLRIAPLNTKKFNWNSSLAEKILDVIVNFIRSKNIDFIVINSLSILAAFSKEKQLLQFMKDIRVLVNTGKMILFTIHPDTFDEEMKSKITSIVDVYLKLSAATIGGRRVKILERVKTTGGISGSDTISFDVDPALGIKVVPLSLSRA
Sequence of SaFlaH (Sulfolobus acidocaldarius, UniProt Q4J9K9, K33A) (Q4J9K9 whole entry K33A): as the sequence (Q4J9K9 whole entry D122N) above, with K33A, N122D counted along it

Molecule: CNc1ccccc1C(=O)O[C@H]1[C@@H](O)[C@H](n2cnc3c(N)ncnc32)O[C@@H]1COP(=O)(O)OP(=O)(O)OP(=O)(O)O (mixture of isomers) [MANT-ATP, 2’-/3’-O-(N’-methylanthraniloyl) adenosine-5’-O-triphosphate]
fluorescence titration (FRET from tryptophan to MANT) [1]: SaFlaH^K33A and SaFlaH^D122N only bound MANT-ATP with strongly reduced affinity
fluorescence titration (FRET from tryptophan to MANT) [2]: SaFlaH^K33A and SaFlaH^D122N only bound MANT-ATP with strongly reduced affinity

Kd [3]: 1 µM
Molecule: Pyrococcus furiosus FlaI (PfFlaI) (enzyme)

binding result [4]: binds
B1: His6-tagged Sulfolobus acidocaldarius FlaXc (FlaX without its first 37 residues) (domain or fragment, UniProt Q4J9K6 38-250, looked up)
chain: KRVQTQQSPQNISQEQRFPTQQKPANDETSKYSSDSIEKALKDVLGKMDKKENELLTNITNSFNEMKKLIENLNSAVEELALSVKASESDSSSPFNTIIQQEEEHVSREISTVSQLVGSNNPNNVNLTWFIKSCVLLEIMEYDEEKIKQLYELGYVSSDDMFTILRILSFIKNRKITAKELASIAANIAESYSSLTPEIKKYIMILEGGGVNG

binding result [4]: binds
B2: His6-tagged Sulfolobus acidocaldarius FlaXcc1 (FlaXc without the N-terminal domain 38-86) (domain or fragment, UniProt Q4J9K6 87-250, looked up)
chain: KKENELLTNITNSFNEMKKLIENLNSAVEELALSVKASESDSSSPFNTIIQQEEEHVSREISTVSQLVGSNNPNNVNLTWFIKSCVLLEIMEYDEEKIKQLYELGYVSSDDMFTILRILSFIKNRKITAKELASIAANIAESYSSLTPEIKKYIMILEGGGVNG
